These are literature values, as cited in PMC2846211.

This series has as its target DNA polymerase gamma accessory subunit (Homo sapiens) (UniProt Q9UHN1).
Sequence of UniProt Q9UHN1 (Q9UHN1 2-485): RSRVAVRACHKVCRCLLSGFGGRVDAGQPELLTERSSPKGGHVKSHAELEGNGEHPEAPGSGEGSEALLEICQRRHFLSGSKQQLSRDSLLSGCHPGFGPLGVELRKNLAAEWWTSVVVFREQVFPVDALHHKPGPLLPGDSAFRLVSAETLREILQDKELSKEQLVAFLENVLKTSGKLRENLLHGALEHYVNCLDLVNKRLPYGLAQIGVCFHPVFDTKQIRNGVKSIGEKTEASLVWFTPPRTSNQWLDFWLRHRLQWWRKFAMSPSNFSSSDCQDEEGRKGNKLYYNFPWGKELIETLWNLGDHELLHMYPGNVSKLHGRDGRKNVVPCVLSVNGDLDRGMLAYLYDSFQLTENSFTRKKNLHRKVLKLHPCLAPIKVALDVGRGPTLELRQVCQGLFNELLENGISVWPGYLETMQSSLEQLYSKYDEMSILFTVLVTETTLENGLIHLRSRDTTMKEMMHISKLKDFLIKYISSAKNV

One may read the Kd as a measure of binding affinity in units of concentration. “DNA polymerase gamma catalytic subunit (from UniProt P54098)”: the Kd is 0.035 µM.
